Measured values as given in ChEMBL document CHEMBL2074568, “Characterization of the transport properties of human multidrug resistance protein 7 (MRP7, ABCC10)” (Mol Pharmacol, 2003).

Substrate: C[C@]12CC[C@@H]3c4ccc(O)cc4CC[C@H]3[C@@H]1CC[C@@H]2O[C@@H]1O[C@H](C(=O)O)[C@@H](O)[C@H](O)[C@H]1O
Assay: TP_TRANSPORTER: uptake in membrane vesicles from MRP7-expressing HEK293 cells
Type: functional, cell membranes
Conditions: Membrane vesicle

B1: ATP-binding cassette sub-family C member 10 (Homo sapiens), Q5T3U5 (protein)
chain: MERLLAQLCGSSAAWPLPLWEGDTTGHCFTQLVLSALPHALLAVLSACYLGTPRSPDYILPCSPGWRLRLAASFLLSVFPLLDLLPVALPPGAGPGPIGLEVLAGCVAAVAWISHSLALWVLAHSPHGHSRGPLALALVALLPAPALVLTVLWHCQRGTLLPPLLPGPMARLCLLILQLAALLAYALGWAAPGGPREPWAQEPLLPEDQEPEVAEDGESWLSRFSYAWLAPLLARGACGELRQPQDICRLPHRLQPTYLARVFQAHWQEGARLWRALYGAFGRCYLALGLLKLVGTMLGFSGPLLLSLLVGFLEEGQEPLSHGLLYALGLAGGAVLGAVLQNQYGYEVYKVTLQARGAVLNILYCKALQLGPSRPPTGEALNLLGTDSERLLNFAGSFHEAWGLPLQLAITLYLLYQQVGVAFVGGLILALLLVPVNKVIATRIMASNQEMLQHKDARVKLVTELLSGIRVIKFCGWEQALGARVEACRARELGRLRVIKYLDAACVYLWAALPVVISIVIFITYVLMGHQLTATKVFTALALVRMLILPLNNFPWVINGLLEAKVSLDRIQLFLDLPNHNPQAYYSPDPPAEPSTVLELHGALFSWDPVGTSLETFISHLEVKKGMLVGIVGKVGCGKSSLLAAIAGELHRLRGHVAVRGLSKGFGLATQEPWIQFATIRDNILFGKTFDAQLYKEVLEACALNDDLSILPAGDQTEVGEKGVTLSGGQRARIALARAVYQEKELYLLDDPLAAVDADVANHLLHRCILGMLSYTTRLLCTHRTEYLERADAVLLMEAGRLIRAGPPSEILPLVQAVPKAWAENGQESDSATAQSVQNPEKTKEGLEEEQSTSGRLLQEESKKEGAVALHVYQAYWKAVGQGLALAILFSLLLMQATRNAADWWLSHWISQLKAENSSQEAQPSTSPASMGLFSPQLLLFSPGNLYIPVFPLPKAAPNGSSDIRFYLTVYATIAGVNSLCTLLRAVLFAAGTLQAAATLHRRLLHRVLMAPVTFFNATPTGRILNRFSSDVACADDSLPFILNILLANAAGLLGLLAVLGSGLPWLLLLLPPLSIMYYHVQRHYRASSRELRRLGSLTLSPLYSHLADTLAGLSVLRATGATYRFEEENLRLLELNQRCQFATSATMQWLDIRLQLMGAAVVSAIAGIALVQHQQGLANPGLVGLSLSYALSLTGLLSGLVSSFTQTEAMLVSVERLEEYTCDLPQEPQGQPLQLGTGWLTQGGVEFQDVVLAYRPGLPNALDGVTFCVQPGEKLGIVGRTGSGKSSLLLVLFRLLEPSSGRVLLDGVDTSQLELAQLRSQLAIIPQEPFLFSGTVRENLDPQGLHKDRALWQALKQCHLSEVITSMGGLDGELGEGGRSLSLGQRQLLCLARALLTDAKILCIDEATASVDQKTDQLLQQTICKRFANKTVLTIAHRLNTILNSDRVLVLQAGRVVELDSPATLRNQPHSLFQQLLQSSQQGVPASLGGP
Km: 57.8 µM
